Reference: the nanobody polyreactivity screen of Harvey et al. (2022)

Experiment: yeast display, Sf9 membrane polyspecificity reagent, FACS + sequencing; frameworks hold sequencing errors
In short: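 Nanobodies came from a synthetic yeast display library in Saccharomyces cerevisiae BJ5465, induced with galactose for 36–48 hours and stained for 1 hour at 4 °C with 10% biotinylated, detergent-solubilized Sf9 membrane reagent. Cells were enriched on streptavidin microbeads and then FACS-sorted, with low and high (top ~1%) gates set on anti-HA fluorescence for expression and streptavidin fluorescence for reagent binding. Each polyreactivity label reflects the gate a clone came from. Genes were amplified by colony PCR, sequenced by MiSeq 2 × 250 and filtered by CDR length.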

Sequence | polyreactivity (PSR sort gate)
QVQLVESGGGLVQAGGSLRLSCAASGSIFYWYAMGWYRQAPGKERELVAVISSGGSTYYADSVKGRFTISRDNAKNTVYLQMNSLKPEDTAVYYCNAGPLRSGRYTYYYWGQGTQVTVSS | low polyreactivity
QVQLVESGGGLVQAGGSLRLSCAASGSTFQYYAMGWYRQAPGKERELVAAISSGGSTYYADSVKGRFTISRDNAKNTVYLQMNSLKPEDTAVYYCAADFVNRQANRQFDYWGQGTQVTVSS | high polyreactivity
QVQLVESGGGLVQAGGSLRLSCAATGIIFGDNAMGWYRQAPGKERELVAAFTIGGTSTYNADSVKGRFTISRDNAKNTVYLQMNSQKPEDTAVYYCAKTILYDCDYWGQGTQVTVSS | low polyreactivity
QVQLVESGGGLVQAGGSLRLSCAASGGIFYRYAMGWYRQAPGKEREFVASITSSGDRTYYADSVKGRFTISRDNAKNTVYLQMNSLKPEDTAVYYCAAVYTAAWGGRYHYWGQGTQVTVSS | high polyreactivity
QVQLVESGGGLVQAGGSLRLSCPTSGRNLRWYAMVWYIQAPGKERELVAAIKRSGDTTYYADSVKGRFTISRDNAKNTVYLQMNSLKPEHTAVYYCAARYTRKYDYWGQGTQVTVSS | high polyreactivity
QVQLVESGGGLVQAGGSLRLSSAASGRIFSIYAMGWYRQAPGKERELVAAITDRGGTTHYADSVKGRFTISRDYAKNTVYLQMNSLKPEDTAVYYCASDTYDYSSVEDFDYWGQGTQVTVSS | low polyreactivity
QVQLVESGGGLVQAGGSLRLSCAASGFTLFYNAMGWYRQAPGKERELVAAITARGGGTYYADSVKGRFTISRDNAKNTVYLQMNSLKPEDTAVYYCNAGQNQRVDRTDPYDYWGQGTQVTVSS | low polyreactivity
QVELVESGGGLVQPGGSLRLSCAASGRTFYLNAMGWYRQAPGKEREFVARITWSGGSTYYADSVKGRFTISRDNAKNTVYLQMNSLKPEDTAVYYCAARVRLYRGFTKYDYWGQGTQVTVSS | high polyreactivity
QVQLVESGGGLVQAGGSLRLSCAASGSTFTWYAMGWNRQAPGKERELVADITWRDGSTYYADSVKGRFTISRDNAKNTVYLQMNSLKPEDTAVYYCNARRDYDMDWGQGTQVTVSS | high polyreactivity
QVQLVESGGGLVQAGGSLRLSCAASGNIFDIYAMGWYRPAPGTERELVAAISSGGSTYYADSVKGRFTISRDNAKNTVYLQMNSLKPEDTAVYYCAESRVGYYRYEYWGQGTQVTVSS | low polyreactivity
QVQLVESGGGLVQAGGSLRLSCAASGFTFRDYAMGWYRQAPGKERELVAAISRSGDSTYYADSVKGRFTISRDNAKNTVYLQMNSLKPEDTAVYYYAAKRRYTTYDYWGQGTQVTVSS | high polyreactivity
QVQLVESGGGLVQAGGSLRLSCAASGSIFWWNAKGWYRQAPGKERELVAAINWSTGRTYYADSVKGRFTISRDNAKNTVYLQMNSLKPEDTAVYYCNADSKSSYYWYLWYNYWGQGTQVTVSS | low polyreactivity
QVQLVESGGGLVQAGGSLRVSCAASGFTFGPYDMGGSRQAPGKERELVAVIIGGDSTNYADSVKGRFTISRDNAKNTVYLQMNRLKPEDTAVYYCAADYIDRVGWMDYWGQGTQVTVSS | low polyreactivity
QVQLVESGGGLVQAGGSLRLSCAASGSIFLWYAMGWYRQAPGKERELVAAIDWSGGSTYYADSVKGRFTISRDNAKNTVYLQMNSLKPEDTAGYDCAAEWGNWYWWDYGYDYYYWGQGTQVTVSS | high polyreactivity
QVQLVESGGGLVQAGGSLSLICAASGLIFKYNDMGWYRQAPGKERELVAAISTSGGSTYYADSVKGRFTISRDNAKNTVYLQMNSLKPEDTAVYYCNARRQRNKSYNYWGQGTQVTVSS | high polyreactivity
QVQLVESGGGLVQAGGSLRLSCAASGRTFYSYAIGWYRPAPGKERELVASITRSGTRTYYADSVKGRFTISRDNAKNTVYLQMNSLKPEDSAVYYCAARYFPLGGYSWGQGTQVSVSS | high polyreactivity
QVQLVESGGGLVQAGGSLRLSCAASGNTFTTYAMGWYRQAPGKERELVAAISRRGGSTYYADSVKGRFTISRDNAKNTVYLQMNSLKPDDTAVYYCARRYFYTYGYWGQGTQVTVSS | high polyreactivity
QVQLVESGGGLVQAGGSLRLSCAATGFTFNRYTMGWYRQAPGKERELVASISVRGSRTYSADSVKGRFTISRDNAKNTVYLQMNSLKPEDTAVYYCNAKTYVYYRLRSYYYWGQGTQVTVSS | high polyreactivity
QVQLVESGRGLVQAGGSLRLSCAASGFTFSYYAKGWYRQAPGKEREFVAAISWSGGSTYYADSVKGRFTLSRDNAKNTVYLQMNSLKPEDTAVYNSAARSTGGSPGRRFTRGYDYWGQGTQVTVSS | high polyreactivity
QVQLVESGGGLVQAGGSLRLSCAASGLTFADYAMGWYRQAPGKERELVAAISSSDTSTYYADSVKGRFTISRDNAKNTVYLQMNSLKPEDTAVYYCAADEGYVWPYYGWGFGKYDYWGQGTQVTVSS | low polyreactivity
QVQLVESGGGLDQAGGSLRLSCAASGSNFSGWYTMGWYRQAPGKERELVASISISTTDTYYADSVKGRFTISRDNAKKTVYVQMNSLKPEDTAVYYCAAYGWDHVIVEYDYWGQGTQVTVSS | low polyreactivity
QVQLVESGGGLVQAGGSLRLSCAASGSTFVDNDMGWYRQAPGKERELVAAIDQSGGSTSYADSVKGRFTISRDNAKNTVYLQMNSLKPEDTAVYYCATPSYTTAYVEGDYWGQGTQVTVSS | low polyreactivity

Sequence | polyreactivity (PSR sort gate)
QVQLVESGGGLVQAGGSLRLSCAASGIIFPGNAMGWYRQAPGKERELVAAISSGGNTKYADSVKGRFTISRDNAKNTGYLQMNSLKPEDTAVYYCAADGASRALYDYWGQGTQVTVSS | high polyreactivity
QVQLVESGGGLVQAGGSLRLSCAASGRTFRRYAMGWYRQAPGKERELVAAISSSSGTTYYADSVKGRFTISRDNEKNTDYLQMNSLKPEDTAVYYCAAYSRYTTRQYDYWGQGTQVTVSS | high polyreactivity
QVQLVESGGGLVQAGGSLRLSCAASGITFHSYAMGWYRQAPGKERELVAGISSGGSTNYADSVKGRFTISRDNAKNTVYLQMNSLKPEDTAVYYCAVLNHRVDSVLTRYYYWGQGTQVTVSS | low polyreactivity
QVQLVESGRGLVEAGGSLRLICAASGFIIRYYAMGWYRQAPWKERELVAAISTSGGRTYYADSVKGRFTISRDNAKNTVYLQMNSLKPEDTAVYYCNAYTHNRYYWGQGTQVTVSS | high polyreactivity
QVQLVESGGRLVQAGGSLRLSCAASGRIFSRYAMGWYRPAPGKERELVATITWSGGSTYYADSVKGRFTISRDNAKNTVYLQMNSLKPEDTAVYYCNADVTYLYKMDYWGQGTQVTVSS | low polyreactivity
QVQLVESGGGLVQAGGSHRLSCAASGFTFRHYTMGWYRQAPGKERELVAVITRSGGSTYYADSVKGRFTISRDNAKNTVYLQMNSLKPEDTAVYYCAVGRTYNADGYWGQGTQVTVSS | high polyreactivity
QVQLVESGVGLVQAGGSLRLSCAASGIIFPGYVMGWYRQAPGKERELVAAISSGGRTYYADSVKGRFTISRDNAKNTVSLQMNSLKPEDTAVYYCAAGGRARTYYYWGQGTQVTVSS | high polyreactivity
QVQLVESGGGLVQAGGSLRLSCAASGFTFNYYAMGWYRQAPGTERELVAAITSSGGSTYYADSVKGRFTISRDNAKNTVYLLMNSLKPEDTAVYYCNAAVYDHRYIYGFDYWGQGTQVTVSS | high polyreactivity
QVQLVESGGGIVQAGGSLRLTCAASGRIFIYYYMGWYRQAPGKERELVADITLSGGSTYYADSVKGRFTISRDNAKNNVYLQMTSLKPEDTAVYYCAATRRYWKIFFGDGDYWGQATQVTVSS | high polyreactivity
QVQLVDSGGGLVQAGGSLRLSCAASGSTFAFYAMVWSRQAPGKERELVAANSSNGVSTYYADSVKGRFTISRDNAKNTVYLQMKSLKPEDTAVYYCARDVYASPRLYTSRYNYWGQGTQVTVSS | low polyreactivity
QVQLVESGGGLVQAGGSLRLSCSASGSIFGFYAMGWYRQAPGKERELVAAIDSGDSTNYADSVKGRFTISRDHAKNTVYLQMNSQKPEDSAVYYCNAEAWWYFWFDYWGQGTQVTVSS | low polyreactivity
QVQLVESWGGLVQAGGSLRLSCAASGLIFYYNAMAWYRQAPGKERELVAAISRRGGGTYYADSVKGRFTISRDNAKNTVYLLMNSLKPEDTAVYYCAAGSPFSPGKYDYWGQGTQVSVSS | high polyreactivity
QVQLVESGGGLVQAGGSLRLSCAASGFTFRDNAMGWYRQAPGKERELVAAISKSGGTTYYADSVKGRFTISRDNAKNTVYLQMNSLKPEDTAVYYCNAVNRYSGHSYYWGQGTQVTVSS | low polyreactivity
QVQLVESGGGLVQAGGSLRLSCAASGRTFLSYAMGWYRQAPGKDRELVAAIRRGSSTYYADSVKGRFTISRDNAKNTVYLQMNSLKPEDTAVYYCAARGRYRIGPGRYGKRYDYWGQGTQVTVSS | high polyreactivity
QVQLVESSGGLVQAGGSLRLTCAASGSTFTIYAIGWYRQAPRKERELVAVISSSGGSTYYADSVMGRFTISRDNAKNTVYLQMNSLKPEDTAVYYCAADTRYVGGYLTLYYWGQGTQVTVSS | low polyreactivity
QVQLVESGGRLVQAGGSLRLSCAASGRTFGYNTMGWYRPAPGKEREVVARITWSGASTYYADSVKGRFTISRDNAKNTVYLQMNSLKPEDTAVYYCNTADTVSWRSPYDYWGQGTQVTVSS | high polyreactivity
QVQLVESGGGLVQAGGSLRLSCAASGRTFYPYAMGWYRQAPGKERELVATITWSGTTTYYADSVKGRFTISRDNAKNIVYLQMNSLKPEDTAVYYCAADVWEVVTPYGTIDDDYWGQGTQVTVSS | high polyreactivity
QVQLVESGGGLVQAGGSLRLSCAASGFTFRRNAMGWYRQAPGKEREFVAAITRSGGSTYYADSVKGRFTISRDNAKNTVYLQMNSLKPEDTAVYYCAADLPRWGSYGYGKMDHWGQGTQVTVSS | high polyreactivity
QVQLVESGGGLVQAGGSLRLSCAASGITFYIYAMGWYRQAPGKERELVAAISDDGSTHYADSVKGRFTISRDNAKNTVYLQMNSLTPEDTAVYYCNADDDWFFDFFDYDYWGQGTQVTVSS | low polyreactivity
QVQLVESGGGLVQAGGSLRLSCAASGRIFIGNAMGWYRQAPGKERELVAAISRRGGTTYYADSVKGRFTISRDNAKNTVYLQMNSLKPEDTAVYYCNKEWTYEHGYWGQGTQVTVSS | high polyreactivity
QVQLVESGGGLVQAGGSLRLSCAASGSIFRQNAMGWYRQAPGKERELVAAISSSGGSTYYADSVKGRFTISRDNAKNTVYLQMNSLKPEDTAVYYCAARLRRTQTYSSGRPGDYWGQGTQVTVSS | high polyreactivity
